B1: TPR t1 (parent)
chain: GACCAAUCUGCCCUCAGAGCUCGAGAACAUCUUCGGAUGCAGAGGAGGCAGGCUUCGGUGGCGCGAUAGCGCCAACGUCCUCAACCUCCAAUGCAUCCCACCACAUGAUGAUGCCUGAAGAGCCUUGGUUUUUUG

Variants of: B1
Test: polymerase ribozyme fitness, log enrichment relative to wild type (log ratio); higher = more active; in vitro selection for triplet polymerase activity
In short: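 In triplicate, a single round of in vitro selection was run on each mutant library, PCR-built and transcribed, covering one subunit of a heterodimeric triplet polymerase ribozyme. Frozen incubation at −7 °C followed annealing with a biotinylated primer, partner subunit and triplets, and extended constructs were then gel-excised, streptavidin-captured and taken through RT-PCR. Fitness is the logarithm of genotype enrichment over wild-type enrichment, from inverse-variance-weighted replicate averages of Illumina-sequenced inputs and outputs. […] only genotypes with ≥10 input reads and ≥1 read per output were kept.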

Which “polymerase ribozyme fitness (log ratio)” value does the source give for G10U C20A G42A G93U C115U here?
Its value is -3.5.

Which “polymerase ribozyme fitness (log ratio)” value does the source give for G45U A46C U54C A90G here?
Its value is -1.94.

For C53G U96C U106A A119G U133A, which “polymerase ribozyme fitness (log ratio)” value is on record?
The value was 1.61.

Which “polymerase ribozyme fitness (log ratio)” value does the source give for U106G U133G here?
Its value is -0.611.

With G77A G110U as the variant, how does the “polymerase ribozyme fitness (log ratio)” value read?
The value was -1.1.

Which “polymerase ribozyme fitness (log ratio)” value does the source give for C56G U78A U116G here?
Its value is -3.2.

For C8U G44U, which “polymerase ribozyme fitness (log ratio)” value is on record?
Its value is -1.28.

Which “polymerase ribozyme fitness (log ratio)” value does the source give for C56A G69U here?
Its value is -0.137.

For A41C G47C C49U C86A, which “polymerase ribozyme fitness (log ratio)” value is on record?
Its value is -2.65.

For A2G C89A, which “polymerase ribozyme fitness (log ratio)” value is on record?
Its value is -2.01.

Which “polymerase ribozyme fitness (log ratio)” value does the source give for C13A G60A U131A here?
The value was -2.5.

With C56A C62G as the variant, how does the “polymerase ribozyme fitness (log ratio)” value read?
The value was -3.98.

With C3G G19A A29U G48C C72G U106A G110C C114G as the variant, how does the “polymerase ribozyme fitness (log ratio)” value read?
The value was -7.4.

Which “polymerase ribozyme fitness (log ratio)” value does the source give for A37C G42A A43U C49U C53G U55C here?
The value was -4.27.

Which “polymerase ribozyme fitness (log ratio)” value does the source give for C101U G128C here?
The value was -2.13.

For C11A A119U, which “polymerase ribozyme fitness (log ratio)” value is on record?
The value was -1.67.

Which “polymerase ribozyme fitness (log ratio)” value does the source give for G45U C49U here?
Its value is -1.85.

For A68G C102A, which “polymerase ribozyme fitness (log ratio)” value is on record?
The value was -6.51.

With G69U A84U as the variant, how does the “polymerase ribozyme fitness (log ratio)” value read?
Its value is 0.757.

For C72G A108C, which “polymerase ribozyme fitness (log ratio)” value is on record?
The value was -5.06.

With G19A G63C as the variant, how does the “polymerase ribozyme fitness (log ratio)” value read?
Its value is -2.92.

Which “polymerase ribozyme fitness (log ratio)” value does the source give for G10U C13A G48U C94U U132A here?
Its value is -0.329.

Which “polymerase ribozyme fitness (log ratio)” value does the source give for C13G G44A G63U G120U C123G here?
The value was -0.471.

With C85U U87A C89U as the variant, how does the “polymerase ribozyme fitness (log ratio)” value read?
Its value is -2.94.

With A43G G45U U59A A66U as the variant, how does the “polymerase ribozyme fitness (log ratio)” value read?
The value was -5.27.

Which “polymerase ribozyme fitness (log ratio)” value does the source give for C34A C72G here?
The value was -3.33.

For A41C C114A, which “polymerase ribozyme fitness (log ratio)” value is on record?
The value was -2.37.

With A6G U7C A50U C80G U112G as the variant, how does the “polymerase ribozyme fitness (log ratio)” value read?
Its value is -4.92.

Which “polymerase ribozyme fitness (log ratio)” value does the source give for G61U U78C G117U here?
Its value is -1.99.

With C13U U32G G35A G51A C114A G122C as the variant, how does the “polymerase ribozyme fitness (log ratio)” value read?
Its value is -6.85.

With C13U A16C C73A A95U G117U C124G as the variant, how does the “polymerase ribozyme fitness (log ratio)” value read?
Its value is -1.04.

Which “polymerase ribozyme fitness (log ratio)” value does the source give for U9A A26C C40U U87C U125G here?
Its value is -5.19.

For C12A A43U A46U G71U, which “polymerase ribozyme fitness (log ratio)” value is on record?
Its value is -3.4.

With G60A G120A as the variant, how does the “polymerase ribozyme fitness (log ratio)” value read?
Its value is 0.658.

Which “polymerase ribozyme fitness (log ratio)” value does the source give for G42C U54G C88A C102A here?
Its value is -5.41.

For C40U U55C C70A U96A, which “polymerase ribozyme fitness (log ratio)” value is on record?
The value was -3.02.

Which “polymerase ribozyme fitness (log ratio)” value does the source give for U21C C70U A111C here?
Its value is -0.344.

With G61U G113A as the variant, how does the “polymerase ribozyme fitness (log ratio)” value read?
Its value is -0.951.

With A6C C72U C73U C98G C115A U116G as the variant, how does the “polymerase ribozyme fitness (log ratio)” value read?
Its value is -7.45.

Which “polymerase ribozyme fitness (log ratio)” value does the source give for A37U C82A G93U here?
The value was -1.72.

Which “polymerase ribozyme fitness (log ratio)” value does the source give for C82G A119G here?
The value was 0.749.

Which “polymerase ribozyme fitness (log ratio)” value does the source give for C62U C101U here?
The value was -0.317.

With G42U G63A C82U as the variant, how does the “polymerase ribozyme fitness (log ratio)” value read?
The value was -2.86.

For G25A C49U, which “polymerase ribozyme fitness (log ratio)” value is on record?
The value was -6.96.

For C40A C56G G60A, which “polymerase ribozyme fitness (log ratio)” value is on record?
The value was -3.73.

Which “polymerase ribozyme fitness (log ratio)” value does the source give for A5G C13U G42U C76A here?
Its value is -2.01.

With U7G G60C as the variant, how does the “polymerase ribozyme fitness (log ratio)” value read?
The value was -0.367.

For C3A U33A C86A U112G, which “polymerase ribozyme fitness (log ratio)” value is on record?
Its value is -6.24.

Which “polymerase ribozyme fitness (log ratio)” value does the source give for A18U G48A U59G G113A G135U here?
The value was -4.36.

Which “polymerase ribozyme fitness (log ratio)” value does the source give for G42U U125A here?
Its value is -1.61.

Which “polymerase ribozyme fitness (log ratio)” value does the source give for C73G G127U here?
The value was -1.75.

Which “polymerase ribozyme fitness (log ratio)” value does the source give for C8G G45A A84G C89U G117A here?
The value was -2.7.

Which “polymerase ribozyme fitness (log ratio)” value does the source give for A37C C70U C85U C98U G113U U133A here?
Its value is -5.51.

For A5U U21A, which “polymerase ribozyme fitness (log ratio)” value is on record?
The value was 0.185.

Which “polymerase ribozyme fitness (log ratio)” value does the source give for A6G U7C here?
The value was -0.442.

For C12U U96G, which “polymerase ribozyme fitness (log ratio)” value is on record?
Its value is -0.215.

With C49U U81G as the variant, how does the “polymerase ribozyme fitness (log ratio)” value read?
Its value is -3.78.

Which “polymerase ribozyme fitness (log ratio)” value does the source give for A41U G61A C82G G120A U125G here?
Its value is -2.63.

With A16U G42A as the variant, how does the “polymerase ribozyme fitness (log ratio)” value read?
Its value is -3.84.

For A46U C101U U132C, which “polymerase ribozyme fitness (log ratio)” value is on record?
Its value is -1.92.

For C11U A27U U32G A37U C62A U109A, which “polymerase ribozyme fitness (log ratio)” value is on record?
The value was -5.82.

With G69A G113A as the variant, how does the “polymerase ribozyme fitness (log ratio)” value read?
Its value is -2.7.

With G52A G57C C72U U116A U129C as the variant, how does the “polymerase ribozyme fitness (log ratio)” value read?
The value was -4.37.

Which “polymerase ribozyme fitness (log ratio)” value does the source give for A50G C73U here?
The value was 0.871.

With G35U G61A C85A C114G U131G as the variant, how does the “polymerase ribozyme fitness (log ratio)” value read?
Its value is -6.32.

For A43U C85A, which “polymerase ribozyme fitness (log ratio)” value is on record?
The value was -2.96.

For G63U C124A, which “polymerase ribozyme fitness (log ratio)” value is on record?
The value was 0.583.

For C11U C28U G45U G61U A84U C101A, which “polymerase ribozyme fitness (log ratio)” value is on record?
Its value is -5.59.

For C12G A43G C79A U112A G117C, which “polymerase ribozyme fitness (log ratio)” value is on record?
The value was -4.33.

With C86A U129A as the variant, how does the “polymerase ribozyme fitness (log ratio)” value read?
The value was -2.31.

For C56A U78G C86A G120U, which “polymerase ribozyme fitness (log ratio)” value is on record?
The value was -0.426.

For C56A C123U, which “polymerase ribozyme fitness (log ratio)” value is on record?
The value was 1.2.

For C31G C80G A100U C101G A103U G120C, which “polymerase ribozyme fitness (log ratio)” value is on record?
The value was -7.23.

Which “polymerase ribozyme fitness (log ratio)” value does the source give for U54A C104U C114G C115U here?
Its value is -5.34.

Which “polymerase ribozyme fitness (log ratio)” value does the source give for G35A G45A here?
Its value is -4.16.

For C31A A50G U55G G107A C124U, which “polymerase ribozyme fitness (log ratio)” value is on record?
The value was -3.71.

With G44U U55A A83U as the variant, how does the “polymerase ribozyme fitness (log ratio)” value read?
Its value is -1.34.

With A95C G113U as the variant, how does the “polymerase ribozyme fitness (log ratio)” value read?
Its value is -3.39.

With U112G C123U as the variant, how does the “polymerase ribozyme fitness (log ratio)” value read?
Its value is 0.561.

Which “polymerase ribozyme fitness (log ratio)” value does the source give for A29G A37C G45C here?
Its value is -3.58.

With C49A C62U C85U C124G as the variant, how does the “polymerase ribozyme fitness (log ratio)” value read?
The value was 1.34.

For G48U U87A, which “polymerase ribozyme fitness (log ratio)” value is on record?
The value was -1.44.

For G35C C85A U109A C114G C124U, which “polymerase ribozyme fitness (log ratio)” value is on record?
The value was -4.87.

With A41G A46U G77U as the variant, how does the “polymerase ribozyme fitness (log ratio)” value read?
The value was -3.75.

Reference: the RNAGym collection of RNA variant scans (doi:10.1073/pnas.2313332121)
